Data on one molecule can be found in PMC2806001.

Broadly, the stoichiometry N is the number of molecules, sites or subunits per partner or assembly.

This test deals with T1, Peroxiredoxin 1 (Prx1) WT, recombinant (mouse), P35700.
T1 chain: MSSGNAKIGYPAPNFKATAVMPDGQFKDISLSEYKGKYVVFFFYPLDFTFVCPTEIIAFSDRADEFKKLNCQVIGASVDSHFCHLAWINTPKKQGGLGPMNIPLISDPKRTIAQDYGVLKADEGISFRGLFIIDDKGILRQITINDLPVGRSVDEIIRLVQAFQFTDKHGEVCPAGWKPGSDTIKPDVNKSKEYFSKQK
Kind of test: native gel or EMSA; BN-PAGE of purified recombinant proteins incubated for 1 hour at room temperature (20 μg p66CH2CB with 40 μg Prx1 WT or 20 μg Prx1-Cys83Ser); bands cut out and separated in a second, denaturing SDS-PAGE dimension. As to conditions: remark: other sources report otherwise. On the technique in general: In EMSA bound probe runs differently from free probe, usually more slowly.

B1: Peroxiredoxin 1 (Prx1) WT, recombinant, P35700 1-199 (enzyme)
chain: T1 chain
In the case of B1, the stoichiometry N came out at 10.
